Here are results for one molecule from paper PMC9959367, “Identification and Characterization of p300-Mediated Lysine Residues in Cardiac SERCA2a” (International Journal of Molecular Sciences, 2023).

In the test the target is T1, phospholamban (PLN) (UniProt P26678 1-52).
T1 construct: phospholamban, overexpressed
T1 sequence (looked up): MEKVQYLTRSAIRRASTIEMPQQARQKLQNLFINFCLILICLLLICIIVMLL
The experiment in a line: co-IP; IP experiments in overexpression systems, told in the discussion only, data not shown; which partner was precipitated is not told. The following applies: partners not purified.

B1: acetylation-mimic mutant of K328 SERCA2a (K328Q) (natural protein, UniProt P16615-2 1-997, looked up)
chain: MENAHTKTVEEVLGHFGVNESTGLSLEQVKKLKERWGSNELPAEEGKTLLELVIEQFEDLLVRILLLAACISFVLAWFEEGEETITAFVEPFVILLILVANAIVGVWQERNAENAIEALKEYEPEMGKVYRQDRKSVQRIKAKDIVPGDIVEIAVGDKVPADIRLTSIKSTTLRVDQSILTGESVSVIKHTDPVPDPRAVNQDKKNMLFSGTNIAAGKAMGVVVATGVNTEIGKIRDEMVATEQERTPLQQKLDEFGEQLSKVISLICIAVWIINIGHFNDPVHGGSWIRGAIYYFKIAVALAVAAIPEGLPAVITTCLALGTRRMAQKNAIVRSLPSVETLGCTSVICSDKTGTLTTNQMSVCRMFILDRVEGDTCSLNEFTITGSTYAPIGEVHKDDKPVNCHQYDGLVELATICALCNDSALDYNEAKGVYEKVGEATETALTCLVEKMNVFDTELKGLSKIERANACNSVIKQLMKKEFTLEFSRDRKSMSVYCTPNKPSRTSMSKMFVKGAPEGVIDRCTHIRVGSTKVPMTSGVKQKIMSVIREWGSGSDTLRCLALATHDNPLRREEMHLEDSANFIKYETNLTFVGCVGMLDPPRIEVASSVKLCRQAGIRVIMITGDNKGTAVAICRRIGIFGQDEDVTSKAFTGREFDELNPSAQRDACLNARCFARVEPSHKSKIVEFLQSFDEITAMTGDGVNDAPALKKAEIGIAMGSGTAVAKTASEMVLADDNFSTIVAAVEEGRAIYNNMKQFIRYLISSNVGEVVCIFLTAALGFPEALIPVQLLWVNLVTDGLPATALGFNPPDLDIMNKPPRNPKEPLISGWLFFRYLAIGCYVGAATVGAAAWWFIAADGGPRVSFYQLSHFLQCKEDNPDFEGVDCAIFESPYPMTMALSVLVTIEMCNALNSLSENQSLLRMPPWENIWLVGSICLSMSLHFLILYVEPLPLIFQITPLNVTQWLMVLKISLPVILMDETLKFVARNYLEPAILE
notes: SERCA2a with lysine 328 exchanged for glutamine to mimic acetylation; The mutants were expressed from plasmids in HEK293 cells for the ATPase assays; also called K328Q SERCA2a
On to B1, for which the “fold change of affinity against wild-type SERCA2a” value was about 2.5 fold.
